Reference: US20230203119A1 (IGM BIOSCIENCES, published 2023)
Numbering of substitutions follows the chain as printed. Names may count otherwise.

T1: IL-15 receptor (β and γ subunits) on human CD8 T cells and NK cells (human, UniProt P14784 27-551; P31785 23-369)
T1 sequence (looked up) 1: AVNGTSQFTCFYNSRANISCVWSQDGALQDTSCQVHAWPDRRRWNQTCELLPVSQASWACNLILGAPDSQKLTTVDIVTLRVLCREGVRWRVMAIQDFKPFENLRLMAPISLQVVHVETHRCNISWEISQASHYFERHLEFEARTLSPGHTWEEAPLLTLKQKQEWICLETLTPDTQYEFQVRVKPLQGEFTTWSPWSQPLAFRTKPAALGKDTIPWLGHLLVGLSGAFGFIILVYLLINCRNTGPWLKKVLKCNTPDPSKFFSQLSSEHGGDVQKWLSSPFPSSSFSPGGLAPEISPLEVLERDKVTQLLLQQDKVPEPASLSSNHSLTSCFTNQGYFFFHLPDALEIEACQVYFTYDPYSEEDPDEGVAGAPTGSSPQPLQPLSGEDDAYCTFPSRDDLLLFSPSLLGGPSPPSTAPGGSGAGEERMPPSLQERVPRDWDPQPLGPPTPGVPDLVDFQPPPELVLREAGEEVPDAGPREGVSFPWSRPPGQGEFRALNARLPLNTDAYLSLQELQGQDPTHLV
T1 sequence (looked up) 2: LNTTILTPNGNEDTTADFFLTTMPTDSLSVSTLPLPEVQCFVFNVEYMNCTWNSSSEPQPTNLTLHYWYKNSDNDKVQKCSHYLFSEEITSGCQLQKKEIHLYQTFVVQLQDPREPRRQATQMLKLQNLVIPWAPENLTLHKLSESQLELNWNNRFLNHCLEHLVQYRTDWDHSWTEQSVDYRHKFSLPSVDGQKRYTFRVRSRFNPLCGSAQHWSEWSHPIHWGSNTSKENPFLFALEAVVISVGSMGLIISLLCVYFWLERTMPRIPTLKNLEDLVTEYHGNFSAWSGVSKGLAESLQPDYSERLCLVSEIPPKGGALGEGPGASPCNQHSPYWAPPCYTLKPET

T2: IL-15 receptor (β and γ subunits) on cynomolgus CD8 T cells (cynomolgus, UniProt Q38J85 27-551; A0A2K5VGJ6 23-369)
T2 sequence (looked up) 1: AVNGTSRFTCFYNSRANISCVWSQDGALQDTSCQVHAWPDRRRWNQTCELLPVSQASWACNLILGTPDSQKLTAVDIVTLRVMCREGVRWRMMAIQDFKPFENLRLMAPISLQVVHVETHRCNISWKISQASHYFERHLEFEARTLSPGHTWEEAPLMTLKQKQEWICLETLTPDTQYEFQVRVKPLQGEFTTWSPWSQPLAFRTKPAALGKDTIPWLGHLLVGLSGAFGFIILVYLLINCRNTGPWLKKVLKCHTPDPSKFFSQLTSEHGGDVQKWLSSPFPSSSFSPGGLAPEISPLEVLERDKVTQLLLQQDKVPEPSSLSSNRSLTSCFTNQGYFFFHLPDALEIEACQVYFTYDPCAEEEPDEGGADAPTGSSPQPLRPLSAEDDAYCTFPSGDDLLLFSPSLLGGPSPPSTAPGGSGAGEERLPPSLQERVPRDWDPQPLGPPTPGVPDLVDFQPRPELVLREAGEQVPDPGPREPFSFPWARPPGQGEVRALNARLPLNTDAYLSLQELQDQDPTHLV
T2 sequence (looked up) 2: T1 sequence (looked up) 2 with T14A, A16T, T22S, H141R, T228S, A326P

B1: KD-RI (anti-PD-L1 IgG with human IL-15Ralpha sushi domain and human IL-15 fused to its C-terminus) (antibody)
heavy: not shown
light: QSALTQPASVSGSPGQSITISCTGTSSDVGAYNYVSWYQQHPGKAPKLMIYDVSNRPSGVSNRFSGSKSGNTASLTISGLQAEDEADYYCSSYTSSSTRVFGTGTKVTVLGQPKANPTVTLFPPSSEELQANKATLVCLISDFYPGAVTVAWKADGSPVKAGVETTKPSKQSNNKYAASSYLSLTPEQWKSHRSYSCQVTHEGSTVEKTVAPTEC
notes: Heavy chain fusion protein and light chain as described in U.S. Pat. No. 10,407,502
B2: h3C5 IgM + J*RI (anti-PD-L1 IgM pentamer with modified J-chain J*RI) (antibody)
VH: QVQLQESGPGLVKPSETLSLTCTVSGFSLTSYDISWIRQPPGKGLEWIGVIWTGVGTNYNPSLKSRVTISVDTSKNQFSLKLSSVTAADTAVYYCARDPYYYGMDYWGQGTLVTVSS
VL: DIQMTQSPSSLSASVGDRVTITCRASQDISIWLSWYQQKPGKAPKLLIYKASNLHTGVPSRFSGSGSGTDFTLTISSLQPEDFATYYCLQSQSFPRTFGQGTKLEIK
chain: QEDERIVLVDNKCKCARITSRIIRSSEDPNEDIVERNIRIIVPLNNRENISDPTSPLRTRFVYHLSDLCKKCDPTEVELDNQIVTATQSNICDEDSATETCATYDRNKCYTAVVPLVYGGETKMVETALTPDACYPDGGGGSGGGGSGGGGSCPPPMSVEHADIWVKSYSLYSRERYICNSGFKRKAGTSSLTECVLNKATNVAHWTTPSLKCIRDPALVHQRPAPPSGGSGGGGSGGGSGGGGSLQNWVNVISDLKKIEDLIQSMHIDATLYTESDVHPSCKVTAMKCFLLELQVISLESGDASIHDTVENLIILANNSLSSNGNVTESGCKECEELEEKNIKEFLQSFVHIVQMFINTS
notes: IgM pentamer; Third chain is the modified J-chain J*RI (J* Y102A - IL-15Ralpha sushi - IL-15); also called H1-3C5 + J*RI; h3C5 + J*RI
B3: m3c5-J*RI (anti-PD-L1 human IgM pentamer with m3c5 VH/VL and modified J-chain J*RI) (antibody)
VH: QVQLKESGPGLVAPSQSLSITCTVSGFSLTSYDISWVRQPPGKGLEWLGVIWTGVGTNYNSAFMSRLSISKDNSKSQVFLKMNSLQTDDTAMYYCVRDPYYYGMDYWGQGTSVTVSS
VL: B2 VL with T5N, V15L, R18T, V19I, K42N, A43I, K45E, S60P, F83I, Q100G
chain: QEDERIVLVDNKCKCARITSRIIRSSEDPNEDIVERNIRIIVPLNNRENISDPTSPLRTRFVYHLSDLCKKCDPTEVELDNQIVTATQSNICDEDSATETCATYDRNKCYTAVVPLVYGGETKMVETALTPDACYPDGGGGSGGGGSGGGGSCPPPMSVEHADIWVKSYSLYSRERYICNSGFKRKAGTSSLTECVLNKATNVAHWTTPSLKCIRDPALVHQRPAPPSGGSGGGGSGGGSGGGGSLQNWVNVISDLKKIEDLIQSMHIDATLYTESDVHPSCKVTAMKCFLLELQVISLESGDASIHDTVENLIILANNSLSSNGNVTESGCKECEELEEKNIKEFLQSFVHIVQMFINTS
B4: 3C5 IgM + J*RI-N4D/N65D (IL-15 double mutant N4D/N65D) (antibody)
VH: B2 VH
VL: B2 VL
chain: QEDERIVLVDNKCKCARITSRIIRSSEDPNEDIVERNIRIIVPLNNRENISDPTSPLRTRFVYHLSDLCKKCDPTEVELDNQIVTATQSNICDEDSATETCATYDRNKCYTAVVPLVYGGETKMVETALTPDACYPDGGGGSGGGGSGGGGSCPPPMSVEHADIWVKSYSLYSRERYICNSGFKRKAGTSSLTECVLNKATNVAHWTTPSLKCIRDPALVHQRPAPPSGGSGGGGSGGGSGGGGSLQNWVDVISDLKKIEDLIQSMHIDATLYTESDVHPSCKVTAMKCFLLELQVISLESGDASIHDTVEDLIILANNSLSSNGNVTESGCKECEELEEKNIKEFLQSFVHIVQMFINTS
B5: h3C5 IgM + SJ*RI (anti-PD-L1 IgM pentamer with modified J-chain SP34 scFv-J*-R-I) (bispecific antibody)
VH: B2 VH
VL: B2 VL
chain: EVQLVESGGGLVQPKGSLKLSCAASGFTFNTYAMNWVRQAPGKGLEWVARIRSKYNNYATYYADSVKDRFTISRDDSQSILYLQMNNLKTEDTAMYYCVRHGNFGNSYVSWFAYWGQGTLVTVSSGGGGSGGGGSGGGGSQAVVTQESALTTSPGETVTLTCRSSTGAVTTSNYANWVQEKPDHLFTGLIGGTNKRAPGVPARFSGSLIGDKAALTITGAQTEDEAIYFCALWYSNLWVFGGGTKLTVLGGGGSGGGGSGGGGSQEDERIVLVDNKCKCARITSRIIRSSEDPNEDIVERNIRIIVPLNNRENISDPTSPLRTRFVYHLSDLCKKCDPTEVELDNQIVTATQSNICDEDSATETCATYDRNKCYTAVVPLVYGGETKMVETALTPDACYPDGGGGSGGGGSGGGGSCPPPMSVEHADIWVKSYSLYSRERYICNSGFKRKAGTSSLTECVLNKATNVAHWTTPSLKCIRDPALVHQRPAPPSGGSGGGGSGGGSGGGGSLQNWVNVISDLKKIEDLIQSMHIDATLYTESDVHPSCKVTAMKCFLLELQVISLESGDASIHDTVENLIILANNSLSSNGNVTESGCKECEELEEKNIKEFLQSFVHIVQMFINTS
B6: 3C5 H2L2 F(ab')2 (antibody, V domains shown)
VH: B2 VH with I48L, V71K
VL: B2 VL with V19I
notes: Tested as F(ab')2; also called 3C5 Fab
B7: h3C5 IgM + JH (anti-PD-L1 IgM pentamer with J-chain fused to human serum albumin) (antibody)
VH: B2 VH
VL: B2 VL
chain: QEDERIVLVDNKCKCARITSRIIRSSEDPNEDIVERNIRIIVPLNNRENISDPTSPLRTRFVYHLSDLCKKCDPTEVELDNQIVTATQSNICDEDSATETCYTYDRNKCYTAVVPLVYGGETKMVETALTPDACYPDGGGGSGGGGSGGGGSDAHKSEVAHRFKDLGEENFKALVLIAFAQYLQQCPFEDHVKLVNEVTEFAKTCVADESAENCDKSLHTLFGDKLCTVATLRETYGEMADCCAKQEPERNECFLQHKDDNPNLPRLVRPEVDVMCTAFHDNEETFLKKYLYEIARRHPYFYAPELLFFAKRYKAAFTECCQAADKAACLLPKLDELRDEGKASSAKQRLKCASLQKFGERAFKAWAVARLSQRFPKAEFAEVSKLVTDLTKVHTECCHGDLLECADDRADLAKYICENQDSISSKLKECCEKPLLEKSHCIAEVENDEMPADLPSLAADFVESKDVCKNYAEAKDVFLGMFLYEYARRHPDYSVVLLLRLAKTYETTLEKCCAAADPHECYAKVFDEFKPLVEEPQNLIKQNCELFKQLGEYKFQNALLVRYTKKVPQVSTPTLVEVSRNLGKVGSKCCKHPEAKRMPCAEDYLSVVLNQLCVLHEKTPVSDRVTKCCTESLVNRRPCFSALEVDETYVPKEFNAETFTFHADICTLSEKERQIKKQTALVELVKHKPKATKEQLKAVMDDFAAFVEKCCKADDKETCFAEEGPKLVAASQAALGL
notes: IgM pentamer; Third chain is the modified J-chain J15HSA (no IL-15); also called H1-3C5 + JH; hu3C5+JH
B8: h3C5 IgM + J* (anti-PD-L1 IgM pentamer with J-chain variant Y102A, no IL-15) (antibody)
VH: B2 VH
VL: B2 VL
chain: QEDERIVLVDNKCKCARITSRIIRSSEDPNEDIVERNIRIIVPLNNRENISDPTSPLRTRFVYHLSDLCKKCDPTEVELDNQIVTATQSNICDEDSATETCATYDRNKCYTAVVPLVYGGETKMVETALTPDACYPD
B9: 153 IgM + J*RI (anti-CD20 IgM antibody 153 with modified J-chain J*RI) (antibody)
VH: EVQLVQSGAEVKKPGESLKISCKGSGYSFTSYWIGWVRQMPGKGLEWMGIIYPGDSDTRYSPSFQGQVTISADKSITTAYLQWSSLKASDTAMYYCARHPSYGSGSPNFDYWGQGTLVTVSS
VL: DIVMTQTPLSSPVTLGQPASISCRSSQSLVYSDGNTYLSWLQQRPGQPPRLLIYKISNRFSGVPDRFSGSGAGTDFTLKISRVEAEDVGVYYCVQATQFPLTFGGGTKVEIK
chain: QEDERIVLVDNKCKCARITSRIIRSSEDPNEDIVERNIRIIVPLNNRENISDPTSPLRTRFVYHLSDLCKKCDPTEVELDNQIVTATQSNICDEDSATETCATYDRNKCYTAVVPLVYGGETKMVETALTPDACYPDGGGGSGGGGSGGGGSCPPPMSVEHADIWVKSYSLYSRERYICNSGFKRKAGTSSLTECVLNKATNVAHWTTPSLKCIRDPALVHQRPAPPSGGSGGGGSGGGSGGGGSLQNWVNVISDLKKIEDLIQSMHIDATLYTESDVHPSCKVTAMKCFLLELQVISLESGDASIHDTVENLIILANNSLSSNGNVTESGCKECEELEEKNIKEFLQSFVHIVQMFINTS

Assays:
[1] = molecular target: T3, PD-L1 (UniProt Q9NZQ7 19-238, limits assumed); assay: ELISA on PD-L1
T3 construct: ELISA antigen; also called programmed cell death ligand-1 protein
T3 sequence (Q9NZQ7 19-238 limits assumed): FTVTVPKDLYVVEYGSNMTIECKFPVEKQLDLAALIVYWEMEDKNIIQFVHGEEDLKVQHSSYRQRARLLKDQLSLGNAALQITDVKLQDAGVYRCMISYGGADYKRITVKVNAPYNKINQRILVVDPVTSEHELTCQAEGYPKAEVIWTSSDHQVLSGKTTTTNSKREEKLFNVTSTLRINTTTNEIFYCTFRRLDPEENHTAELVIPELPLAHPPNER

[2] = molecular target: T1, IL-15 receptor (β and γ subunits) on …; assay: cell-based or functional assay
[3] = molecular target: T1, IL-15 receptor (β and γ subunits) on …; assay: cell-based or functional assay; remark: listed apart in the source
[4] = molecular target: T1, IL-15 receptor (β and γ subunits) on …; assay: cell-based or functional assay; remark: listed apart in the source
[5] = molecular target: T2, IL-15 receptor (β and γ subunits) on …; assay: cell-based or functional assay
[6] = molecular target: T1, IL-15 receptor (β and γ subunits) on …; assay: cell-based or functional assay; remark: listed apart in the source
[7] = molecular target: T1, IL-15 receptor (β and γ subunits) on …; assay: cell-based or functional assay; remark: listed apart in the source
[8] = molecular target: T4, human PD-L1 expressed on HEK-293T cells (human, UniProt Q9NZQ7 19-290); assay: high-throughput flow cytometry on HEK-293T cells expressing human PD-L1 and its alanine mutants
T4 construct: whole, on cells
T4 sequence (Q9NZQ7 19-290): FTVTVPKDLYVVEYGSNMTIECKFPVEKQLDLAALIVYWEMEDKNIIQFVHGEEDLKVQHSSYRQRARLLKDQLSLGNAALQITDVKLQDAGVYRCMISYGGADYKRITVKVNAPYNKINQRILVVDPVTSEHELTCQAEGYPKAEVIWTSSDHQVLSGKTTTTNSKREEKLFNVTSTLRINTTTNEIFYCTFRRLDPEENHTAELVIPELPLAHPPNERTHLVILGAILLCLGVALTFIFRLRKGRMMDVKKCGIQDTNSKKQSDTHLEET
Protocol: The epitope that the 3C5 H2L2 (VH: SEQ ID NO: 91, VL: SEQ ID NO: 94) antibody binds to on human PD-L1 was mapped using Alanine-scanning mutagenesis. Epitope mapping was performed by constructing an Alanine scan library of human PD-L1 which was then expressed on HEK-293T cells. Binding of the 3C5 H2L2 F(ab′)2 to each HEK-293 transfected PD-L1 mutant version was evaluated by high-throughput flow cytometry.

Binder	Kd [1]	CD8+ T cell proliferation (Ki-67) EC50 [2]	CD8+ T cell proliferation (Ki-67) EC50, Donor 230 [3]	CD8+ T cell proliferation (Ki-67) EC50, Donor 403 [3]	NK cell proliferation (Ki-67) EC50, Donor 230 [4]	NK cell proliferation (Ki-67) EC50, Donor 403 [4]	also measured
B1	1.33 nM	0.51 nM	–	–	–	–	–
B2	0.04 nM	0.1 nM	0.31 nM	0.51 nM	0.027 nM	0.027 nM	–
B3	–	–	–	–	–	–	cynomolgus CD8+ T cell proliferation (Ki-67), average EC50 [5]: 6.85 nM; human CD8+ T cell proliferation (Ki-67), average EC50 [6]: 3.22 nM
B4	–	–	–	–	–	–	CD8+ T cell proliferation (Ki-67), potency against the constructs with WT IL-15 [7]: 50 fold reduced potency; NK cell proliferation (Ki-67), potency against the constructs with WT IL-15 [7]: 100 fold reduced potency
B5	–	–	0.03 nM	0.34 nM	0.63 nM	0.71 nM	–
B6	–	–	–	–	–	–	binding result [8]: binds
B7	0.05 nM	> 100 nM	–	–	–	–	–
B8	–	–	> 80 nM	> 80 nM	> 80 nM	> 80 nM	–
B9	–	0.64 nM	–	–	–	–	–
